Source: publication PMC12237041

T1: synthetic peptide mimicking the IgA1 hinge region, …-NH2 (human)
T1 sequence (peptide, C-terminal amide): VTVPSPVPSTPAR

B1: IgAse1–4 (enzyme)
chain: MASKPDIKVGDYVKMGVYNNASILWRCVSIDNNGPLMLADKIVDTLAYDAKTNDNSNSKSHSRSYKRDDYGSNYWKDSNMRSWLNSTAAEGKVDWLCGNPPKDGYVSGVGAYNEKAGFLNAFSKSEIAAMKTVTQRSLVSHPEYNKGIVDGDANSDLLYYTDISEAVANYDSSYFETTTEKVFLLDVKQANAVWKNLKGYYVAYNNDGMAWPYWLRTPVTDCNHDMRYISSSGQVGRYAPWYSDLGVRPAFYLDSEYFVTTSGSGSQSSPYIGSAPNKQEDDYTISEPAEDANPDWNVSTEQSIQLTLGPWYSNDGKYSNPTIPVYTIQKTRSDTENMVVVVCGEGYTKSQQGKFINDVKRLWQDAMKYEPYRSYADRFNVYALCTASESTFDNGGSTFFDVIVDKYNSPVISNNLHGSQWKNHIFERCIGPEFIEKIHDAHIKKKCDPNTIPSGSEYEPYYYVHDYIAQFAMVVNTKSDFGGAYNNREYGFHYFISPSDSYRASKTFAHEFGHGLLGLGDEYSNGYLLDDKELKSLNLSSVEDPEKIKWRQLLGFRNTYTCRNAYGSKMLVSSYECIMRDTNYQFCEVCRLQGFKRMSQLVKDVDLYVATPEVKEYTGAYSKPSDFTDLETSSYYNYTYNRNDRLLSGNSKSRFNTNMNGKKIELRTVIQNISDKNARQLKFKMWIKHSDGSVATDSSGNPLQTVQTFDIPVWNDKANFWPLGALDHIKSDFNSGLKSCSLIYQIPSDAQLKSGDTVAFQVLDENGNVLADDNTETQRYTTVSIQYKFEDGSEIPNTAGGTFTVPYGTKLDLTPAKTLYDYEFIKVDGLNKPIVSDGTVVTYYYKN
B2: IgAse1–7 + E540A (domain or fragment)
chain: MASKPDIKVGDYVKMGVYNNASILWRCVSIDNNGPLMLADKIVDTLAYDAKTNDNSNSKSHSRSYKRDDYGSNYWKDSNMRSWLNSTAAEGKVDWLCGNPPKDGYVSGVGAYNEKAGFLNAFSKSEIAAMKTVTQRSLVSHPEYNKGIVDGDANSDLLYYTDISEAVANYDSSYFETTTEKVFLLDVKQANAVWKNLKGYYVAYNNDGMAWPYWLRTPVTDCNHDMRYISSSGQVGRYAPWYSDLGVRPAFYLDSEYFVTTSGSGSQSSPYIGSAPNKQEDDYTISEPAEDANPDWNVSTEQSIQLTLGPWYSNDGKYSNPTIPVYTIQKTRSDTENMVVVVCGEGYTKSQQGKFINDVKRLWQDAMKYEPYRSYADRFNVYALCTASESTFDNGGSTFFDVIVDKYNSPVISNNLHGSQWKNHIFERCIGPEFIEKIHDAHIKKKCDPNTIPSGSEYEPYYYVHDYIAQFAMVVNTKSDFGGAYNNREYGFHYFISPSDSYRASKTFAHAFGHGLLGLGDEYSNGYLLDDKELKSLNLSSVEDPEKIKWRQLLGFRNTYTCRNAYGSKMLVSSYECIMRDTNYQFCEVCRLQGFKRMSQLVKDVDLYVATPEVKEYTGAYSKPSDFTDLETSSYYNYTYNRNDRLLSGNSKSRFNTNMNGKKIELRTVIQNISDKNARQLKFKMWIKHSDGSVATDSSGNPLQTVQTFDIPVWNDKANFWPLGALDHIKSDFNSGLKSCSLIYQIPSDAQLKSGDTVAFQVLDENGNVLADDNTETQRYTTVSIQYKFEDGSEIPNTAGGTFTVPYGTKLDLTPAKTLYDYEFIKVDGLNKPIVSDGTVVTYYYKNKNEEHTHNLTLVAAKAATCTTAGNSAYYTCDGCDKWFADATGSVEITDKTSVKIPAPGHTAGTEWKSDDTNHWHECTVAGCGVIIESTKSAHTAGEWIVDTPATATTAGTKHKECTVCHRVLETQPIPSTGTELKIIAGDNQIYNKASGSDVTITCNGDFAKFTGIKVDGSVVDSSNYTAVSGSTVLTLKASYLGTLTDGSHTITFVYTDGEANANLTVRTAGSGHIHDYGTEWKSNADNHWHECNCGDKKDEAAHSFKWVVDKEATATKKGSKHEECKICGYKRSAVEI

Key:
[1] = target: T1, synthetic peptide mimicking the IgA1 hinge region, …-NH2 (human)
[2] = target: IgA purified from human plasma (human); assay: SEC; Superdex 200 10/300 GL; independent runs of plasma IgA, of inactive IgAse1–7 + E540A and of a preincubated mixture of both

Binder | cleavage of the hinge peptide after overnight incubation at 37 °C, MALDI-TOF mass spectrometry [1] | Kd [2]
B1 | < 1% | –
B2 | – | > 10 µM
